Measurements as given in publication PMC2825239.

B1: CYP75A8 (Catharanthus roseus) (protein)
chain: MALEKLVLFDFLAAISILILVQKFIQIVFLRSSSRIRLPPGPKGWPIIGALPYLGTMPHSILANMAKKYGPIMYLKLGTNGMVVASTPDAVKAFLRTLDMNFSNRPIDAGATHLAYNAQDMVFAHYGPKWKLLRKLSNLHMLGGKALENWSNVRATELGYMLQAMYESSRKGETVVVPEMLTYAMANMIGQVILSRRVFVTKSLESNEFKDMVVELMTTAGYFNIGDFIPSIAWMDLQGIERGMKRLHKKFDALLTKMLEEHKSSSHKRKEKPDFLDYVLANRDNSEGERLTTTNIKALLLNLFTAGTDTSSSVIEWAISEMLKNPTILKRAQEEMDQVIGRNRRLMESDIPKLPYLQAICKETFRKHPSTPLNLPRIAQKDCQVNGYYIPKGTRLSVNIWAIGRDPNVWENPLEFNPDRFLSGKMAKIEPRGNDFELIPFGAGRRICAGTRMGIVLVEYILGTLVHSFDWKLPFDDINELNMDESFGLALQKAVPLVAMVSPRLPINAYSP
B2: CYP75A31 (Solanum lycopersicum) (protein)
chain: MALRINELFVAAIIYIIVHIIISKLITTVRERGRRLPLPPGPTGWPVIGALPLLGSMPHVALAKMAKKYGPIMYLKVGTCGMVVASTPNAAKAFLKTLDINFSNRPPNAGATHLAYNAQDMVFAPYGPRWKLLRKLSNLHMLGGKALENWANVRANELGHMLKSMFDASQDGECVVIADVLTFAMANMIGQVMLSKRVFVEKGVEVNEFKNMVVELMTVAGYFNIGDFIPKLAWMDIQGIEKGMKNLHKKFDDLLTKMFDEHEATSNERKENPDFLDVVMANRDNSEGERLSTTNIKALLLNLFTAGTDTSSSVIEWALAEMMKNPKIFKKAQQEMDQVIGKNRRLIESDIPNLPYLRAICKETFRKHPSTPLNLPRVSSEPCTVDGYYIPKNTRLSVNIWAIGRDPDVWENPLEFTPERFLSGKNAKIEPRGNDFELIPFGAGRRICAGTRMGIVVVEYILGTLVHSFDWKLPNNVIDINMEESFGLALQKAVPLEAMVTPRLSLDVYRC

Substrate: O=C1C[C@@H](c2ccc(O)cc2)Oc2cc(O)cc(O)c21
Assay: cells, lysate or membranes
Conditions: NADPH 1.0 mM, 0.1 M sodium phosphate pH 7.0, 27°C (general assay conditions)

| Protein | Km (ATR1 reductase yeast expression system, assay conditions not separately printed) [µM] | Km (ATR1 reductase) [µM] |
| --- | --- | --- |
| B1 | 0.83 | – |
| B2 | – | 1.20 |
